According to doi:10.1101/2020.06.02.126235:

Biological target: AAV2 OBD (Adeno-associated virus 2, UniProt P03132 1-199)
Experiment: X-ray crystallography

Chain of AAV2 OBD (P03132 1-199): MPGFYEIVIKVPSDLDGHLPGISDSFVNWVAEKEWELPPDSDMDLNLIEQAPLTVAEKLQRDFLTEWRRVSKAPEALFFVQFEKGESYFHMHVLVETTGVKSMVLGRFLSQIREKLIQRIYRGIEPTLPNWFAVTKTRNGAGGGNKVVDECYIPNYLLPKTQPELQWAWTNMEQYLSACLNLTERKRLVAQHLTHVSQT

ATATGCTCGCTCTT (ssDNA) [ssRBS 14-mer (Site A)]: binds.
